In PMC10529462 (Brain research, 2023):
No end group written: not given here.

What was measured:
Assay in all cases: fluorescence polarisation
TAMRA-PS1-10mer = target: TAMRA-PS1-10mer
[1] = target: T1, Mint1^WT C-terminal construct, amino acids 453-839 (rat, UniProt O35430 453-839)
T1 sequence (looked up): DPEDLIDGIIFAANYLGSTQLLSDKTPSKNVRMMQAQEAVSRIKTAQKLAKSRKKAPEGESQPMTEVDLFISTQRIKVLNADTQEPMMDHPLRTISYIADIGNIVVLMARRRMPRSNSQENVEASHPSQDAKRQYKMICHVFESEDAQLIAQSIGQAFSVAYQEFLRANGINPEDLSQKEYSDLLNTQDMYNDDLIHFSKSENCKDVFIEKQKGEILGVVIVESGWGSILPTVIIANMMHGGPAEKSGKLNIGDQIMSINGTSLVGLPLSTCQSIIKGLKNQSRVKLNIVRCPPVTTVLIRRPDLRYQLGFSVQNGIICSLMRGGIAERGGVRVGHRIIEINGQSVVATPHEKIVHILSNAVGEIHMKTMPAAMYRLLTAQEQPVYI

[2] = target: T2, Mint1^Y633A C-terminal construct, amino acids 453-839 (rat, UniProt O35430 453-839, Y633A)
T2 sequence (looked up): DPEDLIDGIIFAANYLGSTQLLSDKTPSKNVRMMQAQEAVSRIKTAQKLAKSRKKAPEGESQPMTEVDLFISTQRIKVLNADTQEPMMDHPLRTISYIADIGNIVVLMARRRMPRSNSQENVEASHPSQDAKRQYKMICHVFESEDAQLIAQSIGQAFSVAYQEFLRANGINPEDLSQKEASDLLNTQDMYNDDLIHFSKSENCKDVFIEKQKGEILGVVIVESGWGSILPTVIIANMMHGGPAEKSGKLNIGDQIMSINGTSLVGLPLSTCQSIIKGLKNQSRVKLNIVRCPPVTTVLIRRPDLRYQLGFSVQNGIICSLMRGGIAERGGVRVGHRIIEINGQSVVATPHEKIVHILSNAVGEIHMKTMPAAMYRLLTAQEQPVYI

[3] = target: T3, Mint1^Y549A/F610A C-terminal construct, amino acids 453-839 (rat, UniProt O35430 453-839, Y549A | F610A)
T3 sequence (looked up): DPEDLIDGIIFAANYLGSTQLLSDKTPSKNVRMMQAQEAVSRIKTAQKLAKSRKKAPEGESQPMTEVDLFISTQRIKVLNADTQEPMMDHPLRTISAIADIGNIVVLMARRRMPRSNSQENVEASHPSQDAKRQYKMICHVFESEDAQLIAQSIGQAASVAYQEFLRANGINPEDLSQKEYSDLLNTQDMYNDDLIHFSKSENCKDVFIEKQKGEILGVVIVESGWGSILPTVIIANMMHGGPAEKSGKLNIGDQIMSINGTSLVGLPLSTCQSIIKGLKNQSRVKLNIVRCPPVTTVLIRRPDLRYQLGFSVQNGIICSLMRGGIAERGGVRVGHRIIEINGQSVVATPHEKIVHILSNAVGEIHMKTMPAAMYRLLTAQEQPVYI

B1: Mint1^Y633A C-terminal construct, amino acids 453-839 (domain or fragment)
chain: DPEDLIDGIIFAANYLGSTQLLSDKTPSKNVRMMQAQEAVSRIKTAQKLAKSRKKAPEGESQPMTEVDLFISTQRIKVLNADTQEPMMDHPLRTISYIADIGNIVVLMARRRMPRSNSQENVEASHPSQDAKRQYKMICHVFESEDAQLIAQSIGQAFSVAYQEFLRANGINPEDLSQKEASDLLNTQDMYNDDLIHFSKSENCKDVFIEKQKGEILGVVIVESGWGSILPTVIIANMMHGGPAEKSGKLNIGDQIMSINGTSLVGLPLSTCQSIIKGLKNQSRVKLNIVRCPPVTTVLIRRPDLRYQLGFSVQNGIICSLMRGGIAERGGVRVGHRIIEINGQSVVATPHEKIVHILSNAVGEIHMKTMPAAMYRLLTAQEQPVYI
Kd (TAMRA-PS1-10mer): 139 µM

B2: Mint1^WT C-terminal construct, amino acids 453-839 (domain or fragment)
chain: DPEDLIDGIIFAANYLGSTQLLSDKTPSKNVRMMQAQEAVSRIKTAQKLAKSRKKAPEGESQPMTEVDLFISTQRIKVLNADTQEPMMDHPLRTISYIADIGNIVVLMARRRMPRSNSQENVEASHPSQDAKRQYKMICHVFESEDAQLIAQSIGQAFSVAYQEFLRANGINPEDLSQKEYSDLLNTQDMYNDDLIHFSKSENCKDVFIEKQKGEILGVVIVESGWGSILPTVIIANMMHGGPAEKSGKLNIGDQIMSINGTSLVGLPLSTCQSIIKGLKNQSRVKLNIVRCPPVTTVLIRRPDLRYQLGFSVQNGIICSLMRGGIAERGGVRVGHRIIEINGQSVVATPHEKIVHILSNAVGEIHMKTMPAAMYRLLTAQEQPVYI
Kd (TAMRA-PS1-10mer): 358 µM

B3: Mint1^Y549A/F610A C-terminal construct, amino acids 453-839 (domain or fragment)
chain: DPEDLIDGIIFAANYLGSTQLLSDKTPSKNVRMMQAQEAVSRIKTAQKLAKSRKKAPEGESQPMTEVDLFISTQRIKVLNADTQEPMMDHPLRTISAIADIGNIVVLMARRRMPRSNSQENVEASHPSQDAKRQYKMICHVFESEDAQLIAQSIGQAASVAYQEFLRANGINPEDLSQKEYSDLLNTQDMYNDDLIHFSKSENCKDVFIEKQKGEILGVVIVESGWGSILPTVIIANMMHGGPAEKSGKLNIGDQIMSINGTSLVGLPLSTCQSIIKGLKNQSRVKLNIVRCPPVTTVLIRRPDLRYQLGFSVQNGIICSLMRGGIAERGGVRVGHRIIEINGQSVVATPHEKIVHILSNAVGEIHMKTMPAAMYRLLTAQEQPVYI
Kd (TAMRA-PS1-10mer): 301 µM

{TAMRA}-NNGQNGYENPTYKFFEQMQN [TAMRA-APP17-mer]
Kd [1]: 282 ± 8.3 µM | Kd [2]: 14.5 ± 0.74 µM | Kd [3]: 382 ± 12.5 µM

{TAMRA}-NNGLSSGGRARHSYHHPDQDHWC [TAMRA-VGCC2.2-20mer]
Kd [1]: 619 ± 57.9 µM | Kd [3]: 1460 ± 25.2 µM
